# Laboratory results: patent US20150329595A1 (NORTH CAROLINA STATE UNIVERSITY, published 2015)
# B1: TAL11-130 bait (LexA DBD fused to the first 130 amino acids of TGMV AL1) (other, E. coli;Tomato golden mosaic virus, UniProt P0A7C2 1-202, looked up)
# chain: MKALTARQQEVFDLIRDHISQTGMPPTRAEIAQRLGFRSPNAAEEHLKALARKGVIEIVSGASRGIRLLQEEEEGLPLVGRVAAGEPLLAQQHIEGHYQVDPSLFKPNADFLLRVSGMSMKDIGIMDGDLLAVHKTQDVRNGQVVVARIDDEVTVKRLKKQGNKVELLPENSEFKPIVVDLRQQSFTIEGLAVGVIRNGDWLMPSHPKRFQINAKNYFLTYPQCSLSKEESLSQLQALNTPINKKFIKICRELHEDGQPHLHVLIQFEGKYCCQNQRFFDLVSPTRSAHFHPNIQRAKSSSDVKTYIDKDGDTLVWGEFQVDGRSARGGCQT
# notes: yeast two-hybrid bait; also called NT; Rep1-130
# B2: AD:TAL11-352 prey (activation domain fused to full-length TGMV AL1) (other, Tomato golden mosaic virus, UniProt P03567 1-352, looked up, not shown: large carriers)
# chain: MPSHPKRFQINAKNYFLTYPQCSLSKEESLSQLQALNTPINKKFIKICRELHEDGQPHLHVLIQFEGKYCCQNQRFFDLVSPTRSAHFHPNIQRAKSSSDVKTYIDKDGDTLVWGEFQVDGRSARGGCQTSNDAAAEALNASSKEEALQIIREKIPEKYLFQFHNLNSNLDRIFDKTPEPWLPPFHVSSFTNVPDEMRQWAENYFGKSSAARPERPISIIIEGDSRTGKTMWARSLGPHNYLSGHLDLNSRVYSNKVEYNVIDDVTPQYLKLKHWKELIGAQRDWQTNCKYGKPVQIKGGIPSIVLCNPGEGASYKVFLDKEENTPLKNWTFHNAKFVFLNSPLYQSSTQSS
# notes: positive prey control; also called pNSB970
# Tests used:
# [1] = target: B2; experiment: yeast two-hybrid growth
# [2] = target: T1, GUS bait (LexA DBD:beta-glucuronidase fusion) (E. coli, UniProt P0A7C2 1-202; P05804 1-603); experiment: yeast two-hybrid growth
# T1 construct: negative control bait; also called pNSB1120
Binder,binding result [1],binding result [2]
B1,no binding,
B2,,no binding
